Target: 6xHis-GABARAP (UniProt O95166 1-117)
Assay: pull-down

Sequence of 6xHis-GABARAP (O95166 whole entry): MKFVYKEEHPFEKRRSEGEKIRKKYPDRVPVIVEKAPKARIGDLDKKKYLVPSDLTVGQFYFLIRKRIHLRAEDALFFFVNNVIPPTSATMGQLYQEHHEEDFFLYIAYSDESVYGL

binding result: binds
B1: GST-MAPK15_300–373_WT (domain or fragment, UniProt Q8TD08 300-373, looked up)
chain: QHPYVQRFHCPSDEWAREADVRPRAHEGVQLSVPEYRSRVYQMILECGGSSGTSREKGPEGVSPSQAHLHKPRA
